# Tested on: Response Element-driven mCerulean reporter (MTERF1 binding sites, SEQ ID NO: 42)
# Test: mCerulean reporter co-transfection with HumTAP constructs in HEK293 cells (flow cytometry)
# Assay type: cell-based, human
# Conditions: HEK293; for reporter gene (mCerulean) expression / reporter (mCerulean) expression / mCerulean expression, fold lower than the benchmark RelA430-551 TAD: TAD fused to MTERF158-399; for reporter gene (mCerulean) expression: 5xRE reporter without spacer (SEQ ID NO: 48), compared with RelA430-551 (Example 1, FIG. 4A); for reporter (mCerulean) expression: pEF1a-driven, Example 4, FIG. 9B, C; for mCerulean expression, fold lower than the benchmark RelA430-551 TAD: FIG. 9B; for output expression / transcriptional activation: N-terminally truncated MTERF1 fused to RelA430-551, reporter SEQ ID NO: 48 (Example 1, FIG. 5B); for reporter expression, times less than with MTERF158-399: truncated MTERF1 DBD, FIG. 9E; for fluorescence relative to only one copy of the respective TAD: Example 1, FIG. 4A
# Excerpt: To construct a promoter with Response Elements/MTERF1 binding sites driving the gene of interest, the inventors placed MTERF1 binding sites (SEQ ID NO: 42) upstream a minimal TATA box (SEQ ID NO: 103). An mCerulean fluorescent reporter representing the gene of interest (Gol) was placed downstream of the TATA box. Each of these is referred to as a reporter construct. Five different reporter constructs were made comprising respectively 3, 5, 7, 9, and 11 MTERF1 binding sites 6 base pairs apart upstream of the TATA box (FIG. 1A; SEQ ID NO: 41, 44, 45, 46 and 47, respectively). They were co-transfected with the MTF construct into Hela cells. […] Using flow cytometry, relative mCerulean levels were measured and calculated by normalization to the transfection control in Hela cells (FIG. 1C). […] Next, reporter plasmids with varying spacer lengths (0, 6 bp and 10 bp; SEQ ID NO: 48, 44 and 49, respectively) (FIG. 1F) between a fixed number of REs (i.e. 5 REs/MTERF1 binding sites) were transfected with the MTF construct. […] This was confirmed using flow cytometry (FIG. 1H). […]
# With the goal to engineer stronger and possibly shorter HumTAPs, the inventors fused the MTERF158-399 peptide (SEQ ID NO: 1) to a variety of transactivation domains and transfected HEK293 cells with those constructs and the reporter construct comprising 5×RE/MTERF1 binding sites without a spacer between them (SEQ ID NO: 48).
# First, MTERF158-399 (SEQ ID NO: 1) was fused with different subsequences of RelA. RelA361-551 (SEQ ID NO: 27) corresponds to the sequence used in the construction of the bacterial-derived synthetic TF PIT2 [19], while RelA342-551 (SEQ ID NO: 29) contains all annotated transactivation domains according to domain annotation under Uniprot Q04206 (https://www.uniprot.org/uniprotkb/Q04206/entry). […] We also fused MTERF158-399 (SEQ ID NO: 1) to a set of transactivation domains previously found to be strong activators with a small genetic footprint (FIG. 4B).
# To further decrease the DNA footprint of a HumTAP, the inventors investigated to what degree the DNA binding domain may be reduced. To this end, the inventors created 3 versions of MTERF1 subsequences fused to RelA430-551 (SEQ ID NO: 3). MTERF173-399 (SEQ ID NO: 7), MTERF1104-399 (SEQ ID NO: 9), and MTERF1135-399 (SEQ ID NO: 11) are subunits of MTERF1 without its mitochondrial transfer peptide (MTERF11-57; SEQ ID NO: 37) that either lack only the first […] N-terminal amino acids (MTERF58-72; SEQ ID NO: 39) or additionally, also lack the first (MTERF173-98; SEQ ID NO: 104) or both the first and second (MTERF1104-134; SEQ ID NO: 106) mterf motifs (FIG. 5A). The removal of N-terminal domains reduces the genetic footprint of a HumTAP (FIG. 5B). These constructs were co-transfected into HEK293 cells with the reporter construct containing 5×RE without a spacer in its promoter (SEQ ID NO: 48).
# In addition to RelA430-551 (termed “v1”), the inventors tested three alternative subsequences: v2) RelA342-551 (SEQ ID NO: 29), which contains all transactivation domains as annotated on UniProt Q04206; v3) RelA361-551 (SEQ ID NO: 27), which is identical to the peptide used in the construction of PIT2 [2]; and v4) RelA521-551 (SEQ ID NO: 31), which constitutes only the transactivation domain 1 (TA1). The protein domains WW (SEQ ID NO: 21), KRAB of ZNF473 (SEQ ID NO: 23), Nuc-rec-co-Act (SEQ ID NO: 25), LMSTEN (SEQ ID NO: 19), and FoxoTAD (SEQ ID NO: 17) were recently identified as strong transactivators. To assess their functionality in the HumTAP context, the inventors created fusion proteins between each of them and MTERF158-399 (SEQ ID NO: 1) (FIG. 9A).
# Upon co-transfection of HEK293 cells with plasmids encoding pEF1a-driven expression of the fusion HumTAPs, a Response Element-driven mCerulean reporter protein, and a mCherry transfection control, all peptides derived from RelA except TA1 mediated high levels of reporter gene expression. […]
# [1] = two copies of TAD fused to MTERF158-399
Molecule,reporter gene (mCerulean) expression,reporter (mCerulean) expression,other results
"RelA342-551: MTERF158-399 fused to RelA342-551, containing all annotated transactivation domains",stronger reporter gene expression,–,–
"VP64: MTERF158-399 fused to VP64, viral-derived transactivation domain repeats of HHV11 linked by a GS linker (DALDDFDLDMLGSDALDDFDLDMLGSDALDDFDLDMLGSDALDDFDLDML)",lower reporter expression than the benchmark,–,–
TA1: MTERF158-399 fused to the TA1 domain of RelA (PGLPNGLLSGDEDFSSIADMDFSALLSQISS; listed as Homo sapiens),did not activate reporter gene expression significantly,little to no reporter expression,–
FoxoTAD: MTERF158-399 fused to the FOXO-TAD domain of FOXO3 (HEKFPSDLDLDMFNGSLECDMESIIRSELMDADGLDFNFDS; listed as Homo sapiens),mediated significant mCerulean expression,–,"mCerulean expression, fold lower than the benchmark RelA430-551 TAD: 8.4 fold"
ZNF473 KRAB: MTERF158-399 fused to the KRAB domain of ZNF473 (FVTLKDVGMDFTLGDWEQLGLEQGDTFWDTALDNCQDLFLLDPP; listed as Homo sapiens),did not lead to high reporter expression,little to no reporter expression,–
NucRecCoAct: MTERF158-399 fused to the Nuc_rec_co-act domain of NCOA3 (EGQSDERALLDQLHTLLSNTDATGLEEIDRALGIPELVNQGQALEPKQ; listed as Homo sapiens),did not lead to high reporter expression,little to no reporter expression,–
WW: MTERF158-399 fused to the WW domain of WWC1,did not lead to high reporter expression,little to no reporter expression,–
"MTERF173-399: MTERF1 lacking N-term, fused to RelA430-551 (protein, listed as Homo sapiens) EDLLKNLLTMGVDIDMARKRQPGVFHRMITNEQDLKMFLLSKGASKEVIASIISRYPRAITRTPENLSKRWDLWRKIVTSDLEIVNILERSPESFFRSNNNLNLENNIKFLYSVGLTRKCLCRLLTNAPRTFSNSLDLNKQMVEFLQAAGLSLGHNDPADFVRKIIFKNPFILIQSTKRVKANIEFLRSTFNLNSEELLVLICGPGAEILDLSNDYARRSYANIKEKLFSLGCTEEEVQKFVLSYPDVIFLAEKKFNDKIDCLMEENISISQIIENPRVLDSSISTLKSRIKELVNAGCNLSTLNITLLSWSKKRYEAKLKKLSRFA",–,–,"output expression / transcriptional activation: reduced but not abolished; reporter expression, times less than with MTERF158-399: ~ 1.5 times"
"MTERF1104-399: MTERF1 lacking N-term and first Mterf motif, fused to RelA430-551 (protein, listed as Homo sapiens) EQDLKMFLLSKGASKEVIASIISRYPRAITRTPENLSKRWDLWRKIVTSDLEIVNILERSPESFFRSNNNLNLENNIKFLYSVGLTRKCLCRLLTNAPRTFSNSLDLNKQMVEFLQAAGLSLGHNDPADFVRKIIFKNPFILIQSTKRVKANIEFLRSTFNLNSEELLVLICGPGAEILDLSNDYARRSYANIKEKLFSLGCTEEEVQKFVLSYPDVIFLAEKKFNDKIDCLMEENISISQIIENPRVLDSSISTLKSRIKELVNAGCNLSTLNITLLSWSKKRYEAKLKKLSRFA",–,–,"output expression / transcriptional activation: reduced but not abolished; reporter expression, times less than with MTERF158-399: ~ 1.5 times"
"RelA361-551: MTERF158-399 fused to RelA361-551 transactivation domain (PIT2 version) (protein, listed as Homo sapiens) DEFPTMVFPSGQISQASALAPAPPQVLPQAPAPAPAPAMVSALAQAPAPVPVLAPGPPQAVAPPAPKPTQAGEGTLSEALLQLQFDDEDLGALLGNSTDPAVFTDLASVDNSEFQQLLNQGIPVAPHTTEPMLMEYPEAITRLVTGAQRPPDPAPAPLGAPGLPNGLLSGDEDFSSIADMDFSALLSQISS",stronger reporter gene expression,–,–
"LMSTEN: MTERF158-399 fused to the LMSTEN domain of MYB (protein, listed as Homo sapiens) EAQNVSSHVPYPVALHVNIVNVPQPAAAAIQRHYNDEDPEKEKRIKELELLLMSTENELKGQQVLPTQNHTCSYPGWHST",mediated significant mCerulean expression,–,"mCerulean expression, fold lower than the benchmark RelA430-551 TAD: 11.3 fold"
SEQ ID NO: 33: MTERF158-399 fused to two copies of FOXO3604-644 (protein) HEKFPSDLDLDMFNGSLECDMESIIRSELMDADGLDFNFDSHEKFPSDLDLDMFNGSLECDMESIIRSELMDADGLDFNFDS,–,enhanced the transcriptional activity of the synthetic TF more than two copies of TA1 or two copies of LMSTEN,"mCerulean expression, fold more than the benchmark RelA430-551 TAD (fused to MTERF158-399, FIG. 9C): ~ 2 fold; fluorescence relative to only one copy of the respective TAD [1]: 12 times; mCerulean/reporter expression, fold more than one copy of the TAD (two copies of TAD fused to MTERF158-399, Example 4, FIG. 9C): 20 fold"
SEQ ID NO: 35: MTERF158-399 fused to two copies of RelA521-551 (protein) PGLPNGLLSGDEDFSSIADMDFSALLSQISSPGLPNGLLSGDEDFSSIADMDFSALLSQISS,–,led to reporter expression,fluorescence relative to only one copy of the respective TAD [1]: 201 times

# Reference: patent US20260200999A1, “SYNTHETIC TRANSCRIPTION FACTORS” (ETH ZURICH, priority 2022, published 2026)
